Consider one protein from paper PMC4159350, “Structure of the N-Terminal Gyrase B Fragment in Complex with ADP⋅Pi Reveals Rigid-Body Motion Induced by ATP Hydrolysis” (PLoS ONE, 2014).

This data set concerns the molecule itself. The data set is described as follows: crystal structure; GyrB43 incubated with a 15 fold molar excess of ATP and MgCl2 (hydrolysed to ADP.Pi), 50 mM Na-phosphate buffer; sitting drop, 20°C, 0.1 M tri-ammonium citrate pH 6.5, 25% PEG 2000; space group C2221, 1.8 Å; dimer by the crystallographic dyad.

B1: 43 kDa N-terminal fragment of GyrB from E. coli (GyrB43) (domain or fragment)
chain: not shown
notes: DNA gyrase subunit B (GyrB), E. coli, residues 1-392, comprising the ATPase domain (20-220) and the transducer domain (221-392); amplified from E. coli genomic DNA; By the forward primer the His6 codons follow the start ATG and are followed by the codons of S2, N3, S4, Y5; No removal of the tag is described; The dimer is formed by a crystallographic two-fold axis (one monomer per asymmetric …)
As to B1, the binding result is “binds”.
